# Experimental data as given in paper PMC5056641.
# Molecular target: His-CLK1(ΔN) (mouse)
# Experiment: kinetic competition
# Chain of SRSF1 (His-tagged) (Q07955 whole entry): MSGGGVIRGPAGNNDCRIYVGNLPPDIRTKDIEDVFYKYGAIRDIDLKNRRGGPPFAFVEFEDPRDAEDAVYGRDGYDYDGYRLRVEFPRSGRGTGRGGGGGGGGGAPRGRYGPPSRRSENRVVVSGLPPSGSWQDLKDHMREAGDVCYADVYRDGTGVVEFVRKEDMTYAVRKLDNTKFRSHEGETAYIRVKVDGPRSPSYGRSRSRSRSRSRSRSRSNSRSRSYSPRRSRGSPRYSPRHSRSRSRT
substance,measurement,value
SRSF1 (His-tagged) (from UniProt Q07955 1-248) (natural protein),Ki,300 nM
